Results taken from patent US20250236657A1 (TOSOH, published 2025).

What was measured:
[1] = molecular target: AAV2 (wild type), serotype 2 AAV with capsid region VP1 of SEQ ID NO: 99 (adeno-associated virus serotype 2 (AAV2)) (UniProt P03135); assay: affinity HPLC, POROS AAVX resin, linear pH gradient 4.5 to 2.2, AAV2 peak top
[2] = molecular target: AAV2 D528A (adeno-associated virus serotype 2 (AAV2)) (UniProt P03135); assay: as above
[3] = molecular target: AAV2 D529A (adeno-associated virus serotype 2 (AAV2)) (UniProt P03135); assay: as above
[4] = molecular target: AAV2 D529E (adeno-associated virus serotype 2 (AAV2)) (UniProt P03135); assay: as above
[5] = molecular target: AAV2 E499A (adeno-associated virus serotype 2 (AAV2)) (UniProt P03135); assay: as above
[6] = molecular target: AAV2 G383A (adeno-associated virus serotype 2 (AAV2)) (UniProt P03135); assay: as above
[7] = molecular target: AAV2 H271A (adeno-associated virus serotype 2 (AAV2)) (UniProt P03135); assay: as above
[8] = molecular target: AAV2 H271F (adeno-associated virus serotype 2 (AAV2)) (UniProt P03135); assay: as above
[9] = molecular target: AAV2 H271Q (adeno-associated virus serotype 2 (AAV2)) (UniProt P03135); assay: as above
[10] = molecular target: AAV2 H271T (adeno-associated virus serotype 2 (AAV2)) (UniProt P03135); assay: as above
[11] = molecular target: AAV2 N382A (adeno-associated virus serotype 2 (AAV2)) (UniProt P03135); assay: as above
[12] = molecular target: AAV2 Q263A (adeno-associated virus serotype 2 (AAV2)) (UniProt P03135); assay: as above
[13] = molecular target: AAV2 Q385A (adeno-associated virus serotype 2 (AAV2)) (UniProt P03135); assay: as above
[14] = molecular target: AAV2 R471A (adeno-associated virus serotype 2 (AAV2)) (UniProt P03135); assay: as above
[15] = molecular target: AAV2 S264A (adeno-associated virus serotype 2 (AAV2)) (UniProt P03135); assay: as above
[16] = molecular target: AAV2 S267A (adeno-associated virus serotype 2 (AAV2)) (UniProt P03135); assay: as above
[17] = molecular target: AAV2 S267T (adeno-associated virus serotype 2 (AAV2)) (UniProt P03135); assay: as above
[18] = molecular target: AAV2 S384A (adeno-associated virus serotype 2 (AAV2)) (UniProt P03135); assay: as above
[19] = molecular target: AAV2 T503S (adeno-associated virus serotype 2 (AAV2)) (UniProt P03135); assay: as above
[20] = molecular target: AAV2 D528A (adeno-associated virus serotype 2 (AAV2)) (UniProt P03135); assay: affinity HPLC, POROS AAVX resin, linear pH gradient 6.0 to 2.0, AAV2 peak top
[21] = molecular target: AAV2 D529E (adeno-associated virus serotype 2 (AAV2)) (UniProt P03135); assay: as above
[22] = molecular target: AAV2 E499A (adeno-associated virus serotype 2 (AAV2)) (UniProt P03135); assay: as above
[23] = molecular target: AAV2 H271F (adeno-associated virus serotype 2 (AAV2)) (UniProt P03135); assay: as above
[24] = molecular target: AAV2 H271Q (adeno-associated virus serotype 2 (AAV2)) (UniProt P03135); assay: as above
[25] = molecular target: AAV2 N382A (adeno-associated virus serotype 2 (AAV2)) (UniProt P03135); assay: as above
[26] = molecular target: AAV2 Q385A (adeno-associated virus serotype 2 (AAV2)) (UniProt P03135); assay: as above
[27] = molecular target: AAV2 S267A (adeno-associated virus serotype 2 (AAV2)) (UniProt P03135); assay: as above
[28] = molecular target: AAV2 T503S (adeno-associated virus serotype 2 (AAV2)) (UniProt P03135); assay: as above

POROS Capture Select AAVX Affinity Resin (manufactured by Thermo Fisher Scientific)
AAVX column elution time [1]: 48.2 min | AAVX column elution time [2]: 47.8 min | AAVX column elution time [3]: 47.8 min | AAVX column elution time [4]: 48 min | AAVX column elution time [5]: 47.8 min | AAVX column elution time [6]: 48.1 min | AAVX column elution time [7]: 48.2 min | AAVX column elution time [8]: 48.1 min | AAVX column elution time [9]: 48.1 min | AAVX column elution time [10]: 47.9 min | AAVX column elution time [11]: 47.9 min | AAVX column elution time [12]: 48 min | AAVX column elution time [13]: 47.9 min | AAVX column elution time [14]: 48.1 min | AAVX column elution time [15]: 48 min | AAVX column elution time [16]: 48 min | AAVX column elution time [17]: 48 min | AAVX column elution time [18]: 48 min | AAVX column elution time [19]: 48 min | AAVX column elution time [20]: 59.1 min | AAVX column elution time [21]: 59.3 min | AAVX column elution time [22]: 59.3 min | AAVX column elution time [23]: 59.3 min | AAVX column elution time [24]: 59.3 min | AAVX column elution time [25]: 59.2 min | AAVX column elution time [26]: 59.3 min | AAVX column elution time [27]: 59.3 min | AAVX column elution time [28]: 59.4 min
